Measurements: PMC5376753

Biological target: activin type II B receptor (ActRIIB) (human (endogenous in HEK293T)) (UniProt Q13705)
Chain of UniProt Q13705 (Q13705 19-512): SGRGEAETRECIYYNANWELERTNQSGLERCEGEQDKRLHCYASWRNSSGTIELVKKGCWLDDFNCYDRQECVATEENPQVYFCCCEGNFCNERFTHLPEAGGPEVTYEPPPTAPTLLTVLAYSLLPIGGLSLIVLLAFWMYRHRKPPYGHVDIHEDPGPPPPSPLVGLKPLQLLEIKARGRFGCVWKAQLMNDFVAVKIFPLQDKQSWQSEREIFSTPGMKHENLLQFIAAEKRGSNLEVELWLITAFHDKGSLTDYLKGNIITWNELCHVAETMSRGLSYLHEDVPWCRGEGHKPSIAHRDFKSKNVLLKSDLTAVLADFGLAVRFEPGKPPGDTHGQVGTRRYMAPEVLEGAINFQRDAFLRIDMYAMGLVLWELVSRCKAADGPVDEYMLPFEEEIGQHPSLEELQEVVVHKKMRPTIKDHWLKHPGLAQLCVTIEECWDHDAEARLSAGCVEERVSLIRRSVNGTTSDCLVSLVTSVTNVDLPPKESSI

p-SMAD2/3 AlphaLISA response of HEK293T cells after 1 h of ligand; potency of the ligand with 100 nM anti-ActRIIB (murinized BYM338) applied overnight against 0 nM antibody [fold]	Molecule
> 100	recombinant myostatin (Mstn) (from UniProt O14793 267-375) (ligand)
100	recombinant growth and differentiation factor 11 (GDF11) (ligand) NLGLDCDEHSSESRCCRYPLTVDFEAFGWDWIIAPKRYKANYCSGQCEYMFMQKYPHTHLVQQANPRGSAGPCCTPTKMSPINMLYFNDKQQIIYGKIPGMVVDRCGCS
> 100	recombinant activin A (ligand) GLECDGKVNICCKKQFFVSFKDIGWNDWIIAPSGYHANYCEGECPSHIAGTSGSSLSFHSTVINHYRMRGHSPFANLKSCCVPTKLRPMSMLYYDDGQNIIKKDIQNMIVEECGCS
